This assay has as its system hT40, dGA, dGAE and truncated tau fragments. Nature of the assay: Binding ELISA / epitope mapping of anti-tau scAbs with truncated tau proteins and 13mer peptides. To be noted: for Tau proteins/fragments with positive scAb reactivity: binding ELISA; for Shortest region bound on hT40: incl. 13mer peptides; for Epitope: residue numbers of SEQ ID NO: 1 (hT40), CDR Tables 1-11. More on the design: species or system human. The procedure:
A series of binding ELISA was performed using various truncated versions of the tau protein and 13mer peptide libraries spanning the entire hT40 molecule for mapping the epitopes of anti-tau scAbs (Full list of protein antigens used is given in Table 14). In general, ELISA plates were coated with 1 μg/ml hT40 or dGA or dGAE or other truncated versions of the protein and in the case of biotinylated peptides, plates were coated with 5 μg/ml Streptavidin followed by 1 μg/ml biotinylated peptide. The plates were blocked with 2% MPBS and scAb samples added at desired starting concentrations and double diluted across the plate. Binding was detected using anti-Human C Kappa HRP conjugated secondary antibody and the resulting immunoreaction was developed and absorbance values measured as described above.
Selected E specific scAbs and their specific binding to dGAE is shown below (FIG. 8A-E).
Similarly, dGA binding ‘NS’, ‘S’ and ‘M’ group scAbs were subjected to further antigen binding ELISA using shorter tau proteins and biotinylated 13mer peptides as shown below (FIG. 10A-F) and (FIG. 11A-R).
In general terms: In an ELISA, binding on a coated surface is turned into a signal by an enzyme label.

[1] abbreviates: Table 15, residue numbers of hT40.

B1: S1D9: anti-tau clone, Table 2; SEQ ID NO: 413 (protein)
scFv: QVQLQESGPSLVKPSQTLSLTCTVSGFSLTSNSVGWVRQAPGKAPEWVAGIDSDGEEGYNPALNSRLSITRDTSKNQVSLSLSRVTSEDTAVYYCGRTYRTDGYAYGYVQAIDYWGPGLLVTVSSEGKSSGASGESKVDDRVMLTQPPSVSGSPGQTVSITCSGSFIGISSVGWFQQLPGSGLRTVIFASDGRPSGVPDRFSNSKSGNTATLTISSLQAEDEADYFCGSSDRTQYTGVFGSGTRLTVLS
modifications: S1D9 amino acid sequence
As to B1, the Epitope is recorded as 367-379. For the same molecule, for the setting “Table 16, NS, S and M clones”, the “Tau proteins/fragments with positive scAb reactivity” value (“Tau proteins/fragments” for short) is recorded as “hT40, 297-390 (dGA), 297-391 (dGAE)” and the “Shortest region bound on hT40” value is 367-379.

B2: 412E6: C-terminal anti-tau clone, Table 5; sequence in b349 (protein)
scAb: QVQLQESGPSLVKPSETLSLTCTVSGFSLTNYGVGWVRQAPGKALEWLGNIYSGGSTYYNPALKSRLSITRDTSKSQVSLSLNSVTLEDTAVYYCGRGGVGSVDVWGPGLLVTVSSEGKSSGASGESKVDDQAVLTQPPSVSGSPGQRVSITCSGGRNNIGRGTFVDWYQQLPGSGLKTVIYGTDRRPPGVPDRFSGSKTGNAATLTITSLQAEDEADYWCATYDYSNDMIILGSGTRLTVLG
For B2, the Epitope is listed as 412-441.

B3: CA7: anti-tau clone, Table 10; VH SEQ ID NO: 503, VL 504 (antibody, V domains shown)
VH: RVRLQGSGPSLVKPSQTLSLTCTVSGFSFDSYYVGWVRQAPGKALEWLGNIYSTGRAFYNPALKSRLSITRDTSKSQVSLSVSSVTIEDTALYYCVRGSYYHGGGNGMVDFFDYWSPGLLVTVSS
VL: QVVRTQPSSVSGSLGQRVSITCSGSSSNVGYGNYVGWFQQVPGSAPKLLIYAATSRASGVPDRFSGSRSGNTATLTIDSLQAEDEADYYCSSYQRGNTGVFGSGTRLTVLG
modifications: CA7 VH Domain; CA7 VL Domain
As to B3, the Epitope is 1-319. Further, for the setting “Table 17, 'C' group scAbs”, the “Tau proteins/fragments” value was “hT40, 1-319” and the “Shortest region bound on hT40” value is recorded as 1-319.

B4: 412E10: C-terminal anti-tau clone, Table 5; SEQ ID NO: 147 (protein)
chain: QVQLQESGPSLVKPSQTLSLTCTVSGFSVISDSVAWVRQAPGKVPEWLGASGSSGNKYYNPALKSRLSITRDTSKSQVSLSLSSVTTEDTAVYYCARGIIAGVDVWGRGLLVTVSSEGKSSGASGESKVDDQAVLTQPSSVSGSLGQRVSITCSGSSSNVGYGNYVGWYQQVPGSAPKLLIYGTAIRASGVPDRFSGSRSGDTATLTITSLQAEDEADYYCASYQSNYAFFGSGTRLTVLG
modifications: 412E10 amino acid sequence
In the case of B4, the Epitope is recorded as 412-441. Moreover, the “Detection scAb (Epitope)” value (Table 28 (LoD table), residues of hT40) is 412E10 (412-441).

B5: 412G11: C-terminal anti-tau clone, Table 5; SEQ ID NO: 434 (protein)
chain: QVRLQESGPSLVKPSQTLSLTCTVSGFSLTSYALGWVRQAPGRAPEWIGNIWRGGRIEYNPALKSRLSITRDTSKSQVSLSLSSVTTEDTAVYYCSRSGGDWGPGLLVTVSSEGKSSGASGESKVDDQAVLTQPSSVSGSLGQRVSITCSGSSSNVGYGNYVGWYQQVPGSAPKLLIYGATSRASGVPDRFSGSRSENTATLTISSLQAEDEADYYCASYDRSESVVFGSGTRLTVLG
modifications: 412G11 amino acid sequence
On to B5, for which the Epitope was 412-441.

B6: 412B9: C-terminal anti-tau clone, Table 5; SEQ ID NO: 417 (protein)
chain: QVQLQESGPSLVKPSQTLSLTCTVSGFSVISDSVAWVRQAPGKVPEWLGASGSSGNKYYNPALKSRLSITRDTSKSQVSLSLSSVTTEDTAVYYCARGIIAGVDVWGRGLLVSVSSEGKSSGASGESKVDDQAVLTQPSSVSGALGQRVSITCSGSSSNVGYGDYVGWYQQVPGSAPKLLIYGAASRASGVPDRFSGSRSGNTATLTISSLQAEDEADYYCASYDSSDGGVFGSGTRLTVLG
modifications: 412B9 amino acid sequence
Consider B6, for which the Epitope is on record as 412-441.

B7: NS1G7: anti-tau clone, Table 10; SEQ ID NO: 374 (protein)
scFv: QVQLQESGPSLVKPSQTLSLTCTVSGFSLTSYGVGWVRQAPGKTLEWISSISSGGTTFYNPALKSRLSITRDTSESQVSLSLSSVTTEDTAVYYCTRDVHIYYNDYGAAYGDRDYWGPGLLVTVSSEGKSSGASGESKVDDQAVVTQPPSVSGSPGQRVSITCSGSSSNIGGGNYVSWYQQLPGSGLRTLIYGTTSRASGVPDRFSGSGSGNTATLTISSLQAEDEADYYCASYDTNSGSVFGSGTRLTVLG
modifications: NS1G7 amino acid sequence
Take B7: the “Tau proteins/fragments” value (Table 16, NS, S and M clones) is given as “hT40, 297-390 (dGA), 297-391 (dGAE), 275-305, 337-368”.

B8: E2B7: dGAE (391E) specific clone, Table 9; SEQ ID NO: 254 (protein)
scFv: QVQLQESGPSLVKPSQTLSLTCTVSGFSLTSWGVAWVRQAPGKALEWLGTMRSGGGTEYNPALKSRLSITRDTSKSQVSLSLSSVTTEDMAMYYCARGYLSGIHYAWGRGLLVSVSSEGKSSGASGESKVDDQAVLTQLSSVSGSLGQRVSITCSGSSSNVGDGDYVGWFQQLPGSAPKLLIYSARNRASGVPDRFSGSRSGNTATLTITSLQAEDEADYYCASIDTSRSHIFGSGTRLTVLG
modifications: E2B7 amino acid sequence
Regarding B8, the “cross-reactivity using hT40, dGA and dGAE antigens” value (ELISA, 'E' group scAbs) is on record as “specific dGAE binding”. In addition, the “Tau proteins/fragments” value under setting [1] is given as 297-391 (dGAE).

B9: ME12: sheep-derived anti-tau clone, CDRs in Table 1 (protein)
CDR 1: SNAVG
CDR 2: GCSSDGKCYHNSALKS
CDR 3: GFYSIYGYDYSGTIDY
CDR 4: SGSSSNVGGGNSVG
CDR 5: NTNSRPS
CDR 6: VTGDSSTHDDL
modifications: VHCDR1 ME12, NS3D9; VHCDR1 S1D2, S1H6, S2C3; VHCDR1 MC5, MD12; VHCDR1 3aA6, VHCDR1 CE3; VHCDR2 ME12; VHCDR3 ME12; VLCDR1 S1D12, ME12; VLCDR2 ME12; VLCDR3 ME12
For B9, the Epitope is 337-355. In addition, for the setting “Table 16, NS, S and M clones”, the “Tau proteins/fragments” value is “hT40, 297-390 (dGA), 297-391 (dGAE), 341-353, 337-349, 339-351” and the “Shortest region bound on hT40” value is listed as 337-355.

B10: E2A6: dGAE (391E) specific clone, Table 9; SEQ ID NO: 252 (protein)
scFv: QVQLQESGPSLVKPSQTLSLTCTVSGFSLTDWGVAWVRQAPGKALEWLGTMRSGGTTDDNPALKSRLSITRDTSKSQVSLSLSSVTTEDMAMYYCARGYLSGVHYAWGRGLLVTVSSEGKSSGASGESKVDDRVVRTQPSSVSKSLGQSVSITCSGSSSNVGAGNYVGWFQQVPGSAPKLLIYGATNRASGVPARFSGSKSGVTATLTITSLQAEDEADYYCASIDTSRSHIFGSGTRLTVLG
modifications: E2A6 amino acid sequence
As for B10, the “Tau proteins/fragments” value under setting [1] is reported as 297-391 (dGAE).

B11: S1F4: anti-tau clone, Table 2; SEQ ID NO: 414 (protein)
scFv: QVQLQESGPSLVKPSQTLSLTCTVSGFSLSSNSVGWVRQAPGKAPEWVAGIDTDGEEGYNPALNSRLSITRDTSKSQVSLSLSSVTSEDTAVYYCVRSYRADGLAYGYVQAIDYWGPGLLLTISSEGKSSGASGESKVDDQAVVTQPSSVSGSLGQRVSITCSGSFIGISSVGWFQQLPGSGLRTVIVASDGRPSGVPDRFSNSKSGNTATLTISSLQAEDEADYFCGSSDRTQYTGVFGSGTRLTVLG
modifications: S1F4 amino acid sequence
Consider B11, for which the Epitope is listed as 367-379. Further, where the note is “Table 16, NS, S and M clones”, the “Tau proteins/fragments” value is “hT40, 297-390 (dGA), 297-391 (dGAE), 369-390, 369-391” and the “Shortest region bound on hT40” value is on record as 367-379.

B12: S1B1: anti-tau clone, Table 2; SEQ ID NO: 412 (protein)
scFv: QVQLQESGPSLVKPSQTLSLTCTVSGFSLSSNSVGWVRQAPGKAPEWVAGIDTDGEEGYNPALNSRLSITRDTSKSQVSLSLSSVTSEDTAVYYCVRSYRTDGLAYGYVQAIDYWGPGLLVTVSSEGKSSGASGESKVDDQAVLTQPSSVSGSLGQRVSITCSGSFIGISSVGWFQQLPGSGLRTVIVASDGRPSGVPDRFSNSKSGNTATLTISSLQAEDEADYFCGSSDRTQYTGVFGSGTRLTVLG
modifications: S1B1 amino acid sequence
As to B12, the Epitope is reported as 367-379. In addition, under “Table 16, NS, S and M clones”, the “Tau proteins/fragments” value is on record as “hT40, 297-390 (dGA), 297-391 (dGAE)” and the “Shortest region bound on hT40” value was 367-379.

B13: S2C6: anti-tau clone, Table 2; SEQ ID NO: 416 (protein)
scFv: QVQLQESGPSLVKPSQTLSLTCTVSGFSLISNSVGWVRQAPGKAPEWVAGIDTDGEEGYNPALKSQYAASDPDTSKSQVSLSLSSVTSEDTAVYYCGRTYRTDGFAYGYVQAIDYWGPGLLLTISSEGKSSGASGESKVDDQAVLTQPSSVSGSLGQRVSITCSGSFIGISSVGWFQQLPGSGLRTIIVASDGRPSGVPDRFSMSKSGNTATLTISSLQAEDEADYFCGSSDRTQYTGVFGSGTRLTVLG
modifications: S2C6 amino acid sequence
Take B13: the Epitope was 367-379. In addition, for the setting “Table 16, NS, S and M clones”, the “Tau proteins/fragments” value is reported as “hT40, 297-390 (dGA), 297-391 (dGAE), 369-390, 369-391” and the “Shortest region bound on hT40” value is given as 367-379.

The values are drawn from patent publication US20250355001A1, “METHOD FOR DETECTING A TAU PROTEIN FRAGMENT IN A SAMPLE” (GTINVENT LIMITED, priority 2022, published 2025).
